Test results taken from patent publication US6610535B1, “Progenitor cells and methods and uses related thereto” (ES Cell International Pte Ltd., priority 2000, dated 2003).
Entries after “also recorded” stand apart in the source; their conditions may differ.

Columns and labels:
[1] = system: T0 duct prep; assay: PNA-FITC FACS of dispersed duct cells; assay type: binding, rat; conditions: by FACS analysis
Protocol: PNA-FITC was diluted 1:250 in sterile wash buffer (Ca++ Mg++-free PBS containing 1% FBS). Dispersed live cells (approx. 2×10^6 cells) were spun down and resuspended in 100 μl of lectin and incubated for 30-45 min at 4° C. Cells were then washed twice with sterile wash buffer, resuspended in 2 ml of Iscoveís modified DMEM containing 5% FBS, Pen/Strep, 1 mM glutamine, and held on ice until run on the FACSVantage. Standard FACS procedures were used.

[2] = system: pancreatic duct epithelial cells; assay: PNA-FITC lectin histochemistry of pancreas; assay type: binding, rat
Protocol: Paraffin sections of adult human pancreas, adult rat pancreas, embryonic rat pancreas, or cryosections of adult mouse pancreas were used. Alternatively, Time 0 duct or cultured duct preparations from 2 week old rat pancreas were examined, with or without paraformaldehyde fixation. PNA-FITC was used usually at 1:250 dilution in PBS or DMEM/HEPES medium and incubated for 1 hr to overnight at 4° C., then washed and mounted under VectaShield mounting medium containing DAPI. Cells stained without prior fixation were post-fixed before addition of mounting medium.

B1: PNA: plant lectin that binds to galactosyl (β-1,3) N-acetyl galactosamine (protein, UniProt P02872 24-273, looked up)
Galactose-binding lectin: AETVSFNFNSFSEGNPAINFQGDVTVLSNGNIQLTNLNKVNSVGRVLYAMPVRIWSSATGNVASFLTSFSFEMKDIKDYDPADGIIFFIAPEDTQIPAGSIGGGTLGVSDTKGAGHFVGVEFDTYSNSEYNDPPTDHVGIDVNSVDSVKTVPWNSVSGAVVKVTVIYDSSTKTLSVAVTNDNGDITTIAQVVDLKAKLPERVKFGFSASGSLGGRQIHLIRSWSFTSTLITTTRRSIDNNEKKIMNMASA
[1]
  PNA-positive fraction of T0 duct prep: 5-15%
[2]
  labelling of the major pancreatic duct (common bile duct, CBD): does not mark
[2]; by immunohistochemistry
  labelling of blood vessels or stromal cells: does not mark
[2]; rat
  labelling of islet cells: did NOT label; also recorded: does NOT mark
[2]; rat pancreas
  labelling of duct epithelial cells: DID label; also recorded: marks the single layer of epithelial cells
